Allergic reaction symptoms data for 1 molecule are collected here from patent publication CN103211774A, “一种注射用甲磺酸加贝酯组合物及其制备方法” (CHENGDU EASTON PHARMACEUTICAL Co Ltd, priority 2013, dated 2013).

The subject of the data set is guinea pig (豚鼠). Kind of data set: Allergy (sensitisation) test (过敏性试验). The data set is classed as in vivo. Particulars: 0.5 ml x 3 every other day; challenge i.v. 1 ml on day 14 and day 21; observed 30 minutes.

B1: 阳性对照组: 5% ovalbumin positive control group (protein, UniProt P01012 2-386, looked up)
Ovalbumin: GSIGAASMEFCFDVFKELKVHHANENIFYCPIAIMSALAMVYLGAKDSTRTQINKVVRFDKLPGFGDSIEAQCGTSVNVHSSLRDILNQITKPNDVYSFSLASRLYAEERYPILPEYLQCVKELYRGGLEPINFQTAADQARELINSWVESQTNGIIRNVLQPSSVDSQTAMVLVNAIVFKGLWEKAFKDEDTQAMPFRVTEQESKPVQMMYQIGLFRVASMASEKMKILELPFASGTMSMLVLLPDEVSGLEQLESIINFEKLTEWTSSNVMEERKIKVYLPRMKMEEKYNLTSVLMAMGITDVFSSSANLSGISSAESLKISQAVHAAHAEINEAGREVVGSAEAGVDAASVSEEFRADHPFLFCIKHIATNAVLFFGRCVSP
For B1, the allergic reaction symptoms result was “竖毛、发抖、干呕、喷嚏、咳嗽、紫癜、呼吸困难、抽搐、休克、死亡”.
